Data on 30 molecules can be found in patent publication US20250215412A1 (NOVOZYMES A S, published 2025).

This assay addresses T1, Chryseobacterium sp-62563 deamidase polypeptide (second polypeptide, deamidase domain), wildtype (Chryseobacterium sp-62563).
T1 sequence: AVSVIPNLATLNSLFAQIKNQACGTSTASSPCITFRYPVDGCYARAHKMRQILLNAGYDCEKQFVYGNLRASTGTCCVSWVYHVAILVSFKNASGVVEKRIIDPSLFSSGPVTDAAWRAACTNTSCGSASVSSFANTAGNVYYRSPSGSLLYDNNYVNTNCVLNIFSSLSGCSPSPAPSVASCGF
The assay can be described thus: cell-based or functional assay.

B1: Chryseobacterium sp-62563 propeptide E67A (protein)
chain: NQDPNLVAKESNETAMKDFGKTVPVGIEKEDGKFKISFMVTAQPYEIKDSKENAAYISMIKTAVENATPIHVFLKANTNEIAKVDKATDDDIRYFKSVFTKEVKEENRK
Turning to B1, the Relative activity of maturated deamidase (% initial rate) was found to be 46.

B2: Chryseobacterium sp-62563 propeptide M39E (protein)
chain: NQDPNLVAKESNETAMKDFGKTVPVGIEKEDGKFKISFEVTAQPYEIKDSKENAAYISMIKTAVENETPIHVFLKANTNEIAKVDKATDDDIRYFKSVFTKEVKEENRK
Molecule B2 had a Relative activity of maturated deamidase (% initial rate) of 95.

B3: Chryseobacterium sp-62563 propeptide D18P (protein)
chain: NQDPNLVAKESNETAMKPFGKTVPVGIEKEDGKFKISFMVTAQPYEIKDSKENAAYISMIKTAVENETPIHVFLKANTNEIAKVDKATDDDIRYFKSVFTKEVKEENRK
B3 showed a Leakage activity of 0% and a Relative activity of maturated deamidase (% initial rate) of 66.

B4: Chryseobacterium sp-62563 propeptide N1C (protein)
chain: CQDPNLVAKESNETAMKDFGKTVPVGIEKEDGKFKISFMVTAQPYEIKDSKENAAYISMIKTAVENETPIHVFLKANTNEIAKVDKATDDDIRYFKSVFTKEVKEENRK
The molecule B4 came in with a Leakage activity of 0% and a Relative activity of maturated deamidase (% initial rate) of 27.

B5: Chryseobacterium sp-62563 propeptide F19L (protein)
chain: NQDPNLVAKESNETAMKDLGKTVPVGIEKEDGKFKISFMVTAQPYEIKDSKENAAYISMIKTAVENETPIHVFLKANTNEIAKVDKATDDDIRYFKSVFTKEVKEENRK
B5 displayed a Relative activity of maturated deamidase (% initial rate) of 33.

B6: Chryseobacterium sp-62563 propeptide M39Y (protein)
chain: NQDPNLVAKESNETAMKDFGKTVPVGIEKEDGKFKISFYVTAQPYEIKDSKENAAYISMIKTAVENETPIHVFLKANTNEIAKVDKATDDDIRYFKSVFTKEVKEENRK
Take B6: the Relative activity of maturated deamidase (% initial rate) was above 100.

B7: Chryseobacterium sp-62563 propeptide M39G (protein)
chain: NQDPNLVAKESNETAMKDFGKTVPVGIEKEDGKFKISFGVTAQPYEIKDSKENAAYISMIKTAVENETPIHVFLKANTNEIAKVDKATDDDIRYFKSVFTKEVKEENRK
Molecule B7 registered a Relative activity of maturated deamidase (% initial rate) above 100.

B8: Chryseobacterium sp-62563 propeptide M39H (protein)
chain: NQDPNLVAKESNETAMKDFGKTVPVGIEKEDGKFKISFHVTAQPYEIKDSKENAAYISMIKTAVENETPIHVFLKANTNEIAKVDKATDDDIRYFKSVFTKEVKEENRK
In turn, B8 came in with a Relative activity of maturated deamidase (% initial rate) above 100.

B9: Chryseobacterium sp-62563 propeptide D18G (protein)
chain: NQDPNLVAKESNETAMKGFGKTVPVGIEKEDGKFKISFMVTAQPYEIKDSKENAAYISMIKTAVENETPIHVFLKANTNEIAKVDKATDDDIRYFKSVFTKEVKEENRK
Turning to B9, the Leakage activity amounted to 0% and the Relative activity of maturated deamidase (% initial rate) was determined as 62.

B10: Chryseobacterium sp-62563 propeptide F19P (protein)
chain: NQDPNLVAKESNETAMKDPGKTVPVGIEKEDGKFKISFMVTAQPYEIKDSKENAAYISMIKTAVENETPIHVFLKANTNEIAKVDKATDDDIRYFKSVFTKEVKEENRK
Consider B10, for which the Leakage activity was found to be 3% and the Relative activity of maturated deamidase (% initial rate) is 71.

B11: Chryseobacterium sp-62563 propeptide V25C (protein)
chain: NQDPNLVAKESNETAMKDFGKTVPCGIEKEDGKFKISFMVTAQPYEIKDSKENAAYISMIKTAVENETPIHVFLKANTNEIAKVDKATDDDIRYFKSVFTKEVKEENRK
The molecule B11 came in with a Relative activity of maturated deamidase (% initial rate) of 96.

B12: Chryseobacterium sp-62563 propeptide M39F (protein)
chain: NQDPNLVAKESNETAMKDFGKTVPVGIEKEDGKFKISFFVTAQPYEIKDSKENAAYISMIKTAVENETPIHVFLKANTNEIAKVDKATDDDIRYFKSVFTKEVKEENRK
Regarding B12, the Relative activity of maturated deamidase (% initial rate) came out at 45.

B13: Chryseobacterium sp-62563 propeptide K21G (protein)
chain: NQDPNLVAKESNETAMKDFGGTVPVGIEKEDGKFKISFMVTAQPYEIKDSKENAAYISMIKTAVENETPIHVFLKANTNEIAKVDKATDDDIRYFKSVFTKEVKEENRK
B13 registered a Leakage activity of 0% and a Relative activity of maturated deamidase (% initial rate) of 53.

B14: Chryseobacterium sp-62563 propeptide V23Y (protein)
chain: NQDPNLVAKESNETAMKDFGKTYPVGIEKEDGKFKISFMVTAQPYEIKDSKENAAYISMIKTAVENETPIHVFLKANTNEIAKVDKATDDDIRYFKSVFTKEVKEENRK
Turning to B14, the Leakage activity turned out to be 0% and the Relative activity of maturated deamidase (% initial rate) was 56.

B15: Chryseobacterium sp-62563 propeptide M39Q (protein)
chain: NQDPNLVAKESNETAMKDFGKTVPVGIEKEDGKFKISFQVTAQPYEIKDSKENAAYISMIKTAVENETPIHVFLKANTNEIAKVDKATDDDIRYFKSVFTKEVKEENRK
B15 displayed a Relative activity of maturated deamidase (% initial rate) above 100.

B16: Chryseobacterium sp-62563 propeptide M39W (protein)
chain: NQDPNLVAKESNETAMKDFGKTVPVGIEKEDGKFKISFWVTAQPYEIKDSKENAAYISMIKTAVENETPIHVFLKANTNEIAKVDKATDDDIRYFKSVFTKEVKEENRK
B16 showed a Relative activity of maturated deamidase (% initial rate) of 44.

B17: Chryseobacterium sp-62563 propeptide D18R (protein)
chain: NQDPNLVAKESNETAMKRFGKTVPVGIEKEDGKFKISFMVTAQPYEIKDSKENAAYISMIKTAVENETPIHVFLKANTNEIAKVDKATDDDIRYFKSVFTKEVKEENRK
B17 came in with a Leakage activity of 0% and a Relative activity of maturated deamidase (% initial rate) of 51.

B18: Chryseobacterium sp-62563 propeptide S58P (protein)
chain: NQDPNLVAKESNETAMKDFGKTVPVGIEKEDGKFKISFMVTAQPYEIKDSKENAAYIPMIKTAVENETPIHVFLKANTNEIAKVDKATDDDIRYFKSVFTKEVKEENRK
Turning to B18, the Relative activity of maturated deamidase (% initial rate) amounted to 42.

B19: Chryseobacterium sp-62563 propeptide M39N (protein)
chain: NQDPNLVAKESNETAMKDFGKTVPVGIEKEDGKFKISFNVTAQPYEIKDSKENAAYISMIKTAVENETPIHVFLKANTNEIAKVDKATDDDIRYFKSVFTKEVKEENRK
B19 yielded a Relative activity of maturated deamidase (% initial rate) of 39.

B20: Chryseobacterium sp-62563 propeptide Y56P (protein)
chain: NQDPNLVAKESNETAMKDFGKTVPVGIEKEDGKFKISFMVTAQPYEIKDSKENAAPISMIKTAVENETPIHVFLKANTNEIAKVDKATDDDIRYFKSVFTKEVKEENRK
In turn, B20 came in with a Relative activity of maturated deamidase (% initial rate) of 32.

B21: Chryseobacterium sp-62563 propeptide M16G (protein)
chain: NQDPNLVAKESNETAGKDFGKTVPVGIEKEDGKFKISFMVTAQPYEIKDSKENAAYISMIKTAVENETPIHVFLKANTNEIAKVDKATDDDIRYFKSVFTKEVKEENRK
B21 came in with a Leakage activity of 0% and a Relative activity of maturated deamidase (% initial rate) of 27.

B22: Chryseobacterium sp-62563 propeptide Y45L (protein)
chain: NQDPNLVAKESNETAMKDFGKTVPVGIEKEDGKFKISFMVTAQPLEIKDSKENAAYISMIKTAVENETPIHVFLKANTNEIAKVDKATDDDIRYFKSVFTKEVKEENRK
In turn, B22 returned a Relative activity of maturated deamidase (% initial rate) of 65.

B23: Chryseobacterium sp-62563 propeptide D18M (protein)
chain: NQDPNLVAKESNETAMKMFGKTVPVGIEKEDGKFKISFMVTAQPYEIKDSKENAAYISMIKTAVENETPIHVFLKANTNEIAKVDKATDDDIRYFKSVFTKEVKEENRK
Molecule B23 returned a Leakage activity of 0% and a Relative activity of maturated deamidase (% initial rate) of 34.

B24: Chryseobacterium sp-62563 propeptide F38D (protein)
chain: NQDPNLVAKESNETAMKDFGKTVPVGIEKEDGKFKISDMVTAQPYEIKDSKENAAYISMIKTAVENETPIHVFLKANTNEIAKVDKATDDDIRYFKSVFTKEVKEENRK
Molecule B24 yielded a Relative activity of maturated deamidase (% initial rate) above 100.

B25: Chryseobacterium sp-62563 propeptide E65P (protein)
chain: NQDPNLVAKESNETAMKDFGKTVPVGIEKEDGKFKISFMVTAQPYEIKDSKENAAYISMIKTAVPNETPIHVFLKANTNEIAKVDKATDDDIRYFKSVFTKEVKEENRK
B25: the Relative activity of maturated deamidase (% initial rate) is 30.

B26: Chryseobacterium sp-62563 propeptide D18K (protein)
chain: NQDPNLVAKESNETAMKKFGKTVPVGIEKEDGKFKISFMVTAQPYEIKDSKENAAYISMIKTAVENETPIHVFLKANTNEIAKVDKATDDDIRYFKSVFTKEVKEENRK
B26 yielded a Leakage activity of 5% and a Relative activity of maturated deamidase (% initial rate) of 37.

B27: Chryseobacterium sp-62563 propeptide K109G (protein)
chain: NQDPNLVAKESNETAMKDFGKTVPVGIEKEDGKFKISFMVTAQPYEIKDSKENAAYISMIKTAVENETPIHVFLKANTNEIAKVDKATDDDIRYFKSVFTKEVKEENRG
Take B27: the Leakage activity amounted to 0% and the Relative activity of maturated deamidase (% initial rate) is 29.

B28: Chryseobacterium sp-62563 propeptide E30W (protein)
chain: NQDPNLVAKESNETAMKDFGKTVPVGIEKWDGKFKISFMVTAQPYEIKDSKENAAYISMIKTAVENETPIHVFLKANTNEIAKVDKATDDDIRYFKSVFTKEVKEENRK
Regarding B28, the Relative activity of maturated deamidase (% initial rate) came to 27.

B29: Chryseobacterium sp-62563 propeptide F38G (protein)
chain: NQDPNLVAKESNETAMKDFGKTVPVGIEKEDGKFKISGMVTAQPYEIKDSKENAAYISMIKTAVENETPIHVFLKANTNEIAKVDKATDDDIRYFKSVFTKEVKEENRK
For B29, the Relative activity of maturated deamidase (% initial rate) is above 100.

B30: Chryseobacterium sp-62563 propeptide M39S (protein)
chain: NQDPNLVAKESNETAMKDFGKTVPVGIEKEDGKFKISFSVTAQPYEIKDSKENAAYISMIKTAVENETPIHVFLKANTNEIAKVDKATDDDIRYFKSVFTKEVKEENRK
In the case of B30, the Relative activity of maturated deamidase (% initial rate) is above 100.
